According to patent US20250011413A1 (MCMASTER UNIVERSITY, published 2025):
Positions count from the first letter of the chain named. In names and notes the source's numbering stands.

T1: PF4/heparin complex (human PF4 complexed with heparin) (human, UniProt P02776 32-101)
T1 construct: Multimeric complex of PF4 with heparin (not a protein); In the EIAs: PF4 captured on biotinylated heparin on streptavidin plates; In the SRA: platelets with 0.2 U/mL heparin; also called PF4 and heparin complexes
T1 sequence: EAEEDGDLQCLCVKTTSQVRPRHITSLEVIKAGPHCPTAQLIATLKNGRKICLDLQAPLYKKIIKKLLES

T2: Human PF4 (CXCL4), biotinylated, without heparin (human, UniProt P02776 32-101, biotinylated with EZ-link-Sulfo-NHS-LC-Biotin (sites not given))
T2 construct: Immobilised on streptavidin biosensors for BLI; also called PF4 alone; platelet factor 4
T2 sequence: T1 sequence

B1: Wildtype scFv (KKO-derived single chain variable fragment) (scFv)
scFv: DIQMIQSQKFMSTSVGDRVTVTCKASQNVGTNVAWYQQKPGQSPNALIYSASYRYSGVPDRFTGSGSGTDFTLTITNVQSEDLADYFCQQYNSYPLTFGTGTKLDLKGGGGSGGGGSGGGGSVQLQQSGAELVKPGASVKLSCKASGYTFTNYFIYWVKQRPGQGLEWIGEINPRNGDTDFNEKFESRATLTVDKSSSTAYMQLSSLTSEDSAIYYCTRSPYGNNYGFTYWGQGTLVTVSA
notes: VL-(G4S)3 linker-VH; expressed in E. coli BL21 from pADL-22c, purified on Ni-NTA as histidine-tagged scFv, about 28 kDa; also called WT; KKO-scFv; not shown: histidine tag from the pADL-22c vector
B2: Mutant F scFv, scFv(E183V, E186K, G223R) (scFv)
scFv: B1 scFv with E183V, E186K, G223R
notes: VL-linker-VH; histidine-tagged, from E. coli BL21; also called Mut F; not shown: histidine tag from the pADL-22c vector
B3: Mutant E scFv, scFv(Y156H, D180G, Q233P) (scFv)
scFv: B1 scFv with Y156H, R175K, D180G, Q233P
notes: VL-linker-VH; histidine-tagged, from E. coli BL21; also called Mut E; not shown: histidine tag from the pADL-22c vector
B4: Mutant B scFv, scFv(R18K, N152K, D180N) (scFv)
scFv: B1 scFv with R18K, N152K, D180N
notes: VL-linker-VH; histidine-tagged, from E. coli BL21; also called Mut B; not shown: histidine tag from the pADL-22c vector
B5: Mutant D scFv, scFv(Y156H) (scFv)
scFv: B1 scFv with Y156H
notes: VL-linker-VH; histidine-tagged, from E. coli BL21; also called Mut D; not shown: histidine tag from the pADL-22c vector

Legend:
[1] = target: T1, PF4/heparin complex (human PF4 …); assay: BLI (Octet), biotinylated PF4/heparin on streptavidin sensors, 1:1 model; scFv at 0.5 µg/mL (response near baseline)
Description: The Octet-QK Red 96 (FortéBio, Menlo Park, CA) instrumentation was used to conduct all BLI experiments. A 96-well microtiter plate (black, flat-bottom) was used to hold 200 μL per well of either sample or buffer. Pre-coated streptavidin biosensor tips (FortéBio) were hydrated in phosphate buffered saline (PBS) containing 1% bovine serum albumin (BSA, Sigma-Aldrich) before performing all kinetic assays. Each step was performed at an operating temperature of 23° C. with agitation at 1000 rpm. Streptavidin tips were first equilibrated in PBS+1% BSA to establish a baseline. […] The PF4-coated tips were then dipped into PBS+1% BSA for 13 minutes to re-establish a baseline. Tips were then incubated in an analyte solution containing half-fold dilutions of wildtype scFv (4.0, 2.0, 1.0, 0.5, 0.25 μg/mL in PBS+1% BSA) for 10 minutes to measure association. For mutant scFv association, tips were incubated in an analyte solution containing 200 μL of each mutant and wildtype scFv at a final concentration of 1 μg/mL in PBS+1% BSA. Antibody dissociation steps were performed by dipping sensors in wells containing PBS+1% BSA for 56 minutes. The following negative controls included in these kinetic experiments were also measured: 200 μL of buffer to replace both the antigen and scFv and 200 μL buffer replacing scFv only. Each experiment was performed with PF4 or with PF4/heparin as the immobilized antigen. […]

[2] = target: T1, PF4/heparin complex (human PF4 …); assay: BLI (Octet), biotinylated PF4/heparin on streptavidin sensors, 1:1 model; scFv at 1.0 µg/mL
Description: (§1) The Octet-QK Red 96 (FortéBio, Menlo Park, CA) instrumentation was used to conduct all BLI experiments. A 96-well microtiter plate (black, flat-bottom) was used to hold 200 μL per well of either sample or buffer. Pre-coated streptavidin biosensor tips (FortéBio) were hydrated in phosphate buffered saline (PBS) containing 1% bovine serum albumin (BSA, Sigma-Aldrich) before performing all kinetic assays. Each step was performed at an operating temperature of 23° C. with agitation at 1000 rpm. Streptavidin tips were first equilibrated in PBS+1% BSA to establish a baseline. […] The PF4-coated tips were then dipped into PBS+1% BSA for 13 minutes to re-establish a baseline. Tips were then incubated in an analyte solution containing half-fold dilutions of wildtype scFv (4.0, 2.0, 1.0, 0.5, 0.25 μg/mL in PBS+1% BSA) for 10 minutes to measure association. For mutant scFv association, tips were incubated in an analyte solution containing 200 μL of each mutant and wildtype scFv at a final concentration of 1 μg/mL in PBS+1% BSA. Antibody dissociation steps were performed by dipping sensors in wells containing PBS+1% BSA for 56 minutes. The following negative controls included in these kinetic experiments were also measured: 200 μL of buffer to replace both the antigen and scFv and 200 μL buffer replacing scFv only. Each experiment was performed with PF4 or with PF4/heparin as the immobilized antigen.
(§2) BLI experiments were performed to evaluate binding responses and affinities of wildtype and mutant scFv. Biotinylated PF4 alone or complexed with heparin was immobilized on streptavidin biosensors and used to capture wildtype scFv. Half-fold serial dilutions of wildtype scFv ranging from 0.25 μg/mL to 4 μg/mL were used to determine the optimal concentrations for future experiments PF4 (PF4 FIG. 3; PF4/heparin FIG. 4).

[3] = target: T2, Human PF4 (CXCL4), biotinylated, …; assay: BLI (Octet), biotinylated PF4 without heparin on streptavidin sensors, scFv 1 µg/mL
Description: as §1, §2

[4] = target: T1, PF4/heparin complex (human PF4 …); assay: competition EIA, scFv 50 µg/mL; competitor HIT-negative sera antibodies, n=10
Description: (§3) Inhibitory PF4/heparin IgG-specific Streptavidin Enzyme Immunoassay (EIA). The binding activity of wildtype and mutant scFv antibodies to PF4/heparin complexes was measured using an inhibitory PF4/heparin IgG-specific EIA with a streptavidin-biotin capture system. Before performing this protocol, 96-well NUNC Maxisorp plates (ThermoFisher) were coated with 10 μg/mL streptavidin for 24 h. Plates were then blocked with 3% bovine serum albumin (BSA) in phosphate buffered saline (PBS) for 2 h at room temperature. Plates were then coated with 1 U/mL biotinylated-heparin for 1 h followed by 30 μg/mL PF4 for 1 h. Increasing concentrations of wildtype or mutant scFv were added and incubated for 1 hr at room temperature. Without removing wildtype or scFv, HIT patient sera in a 1:50 dilution or full-length KKO (2 μg/mL) was then incubated for 1 h at room temperature. After washing, alkaline phosphatase-conjugated anti-human or anti-mouse IgG (Jackson Immuno Research Laboratories, Inc., West Grove, PA) was added at a 1:4000 dilution and incubated for 1 h temperature. For detection, 1 mg/mL p-nitrophenylphosphate (PNPP, Sigma-Aldrich) substrate dissolved in 1 mol/L diethanolamine (DEA) buffer (pH 9.6) was added. The optical density (OD) was measured at 2 min intervals for 30 min at 405 nm (OD₄₀₅ₙₘ) using a BioTek 800 TS plate reader (BioTek Instruments Inc., Winooski, VT) to determine if anti-PF4/heparin antibody binding was inhibited. Results were reported as a decrease in OD (absorbance at 405 nm) from baseline levels.
Sera (n=10) from confirmed HIT-negative patients (EIA-positive/SRA-negative) containing anti-PF4/heparin antibodies were then used in the same EIA with scFv constructs to determine if antibody binding was decreased in this cohort (Table 5).

[5] = target: T1, PF4/heparin complex (human PF4 …); assay: competition EIA, scFv 50 µg/mL; competitor HIT-positive sera antibodies, n=10
Description: as §3
Inhibiting HIT-Positive (EIA+/SRA+) HIT-Negative (EIA+/SRA−) antibody binding: Sera (n=10) from confirmed HIT-positive patients (EIA-positive/SRA-positive) containing anti-PF4/heparin antibodies were used in a modified streptavidin-biotin based anti-PF4/heparin IgG EIA (streptavidin anti-PF4/hep EIA) with scFv at 50 μg/mL. On average, antibody binding to PF4/heparin was reduced in the presence of scFv.

[6] = target: T1, PF4/heparin complex (human PF4 …); assay: as above; remark: listed apart in the source
[7] = target: T1, PF4/heparin complex (human PF4 …); assay: BLI (Octet), biotinylated PF4/heparin on streptavidin sensors, scFv at 1 µg/mL, 1:1 model, mean ± s.d.
Description: BLI experiments were performed using wildtype scFv, mutant B, mutant C, mutant D, mutant E, and mutant F at 1 μg/mL. Binding was measured against immobilized biotinylated PF4/heparin complexes on streptavidin biosensors. b) Table showing kinetic data of wildtype and mutant scFv, including binding responses and association and dissociation rates. All data was analyzed based on a 1:1 homogenous ligand binding model using Octet®) User Software version 3.1.
as §1
BLI experiments were performed to evaluate binding responses and affinities of wildtype and mutant scFv. Biotinylated PF4 alone or complexed with heparin was immobilized on streptavidin biosensors and used to capture wildtype scFv.

| Binder | koff [1] | Kd [2] | koff [2] | kon [2] | average binding response (wavelength shift) [3] | mean OD405nm of bound serum IgG (+ scFv) [4] | mean OD405nm of bound serum IgG (+ scFv) [5] | mean % inhibition of serum antibody binding [6] | koff [7] | kon [7] | fold increase of binding response against wildtype scFv [3] | fold higher binding response than wildtype scFv [3] |
| --- | --- | --- | --- | --- | --- | --- | --- | --- | --- | --- | --- | --- |
| B1 | 0.00504 s⁻¹ | 0.961 nM | 0.000264 s⁻¹ | 274000 M⁻¹ s⁻¹ | 0.0386 nm | 1.41 OD405nm | 0.931 OD405nm | 44.7% | 0.000519 s⁻¹ | 96700 M⁻¹ s⁻¹ | – | – |
| B2 | – | – | – | – | 0.211 nm | 1.19 OD405nm | 0.281 OD405nm | 80% | 1.41e-05 s⁻¹ | 50900 M⁻¹ s⁻¹ | 5 fold | – |
| B3 | – | – | – | – | 0.0986 nm | 1.08 OD405nm | 0.319 OD405nm | 76.5% | 2.78e-05 s⁻¹ | 79200 M⁻¹ s⁻¹ | – | 2 fold |
| B4 | – | – | – | – | 0.267 nm | 1.1 OD405nm | 0.275 OD405nm | 77.8% | 3.91e-05 s⁻¹ | 27600 M⁻¹ s⁻¹ | 7 fold | – |
| B5 | – | – | – | – | 0.145 nm | 1 OD405nm | 0.283 OD405nm | 78.3% | 3.47e-05 s⁻¹ | 12900 M⁻¹ s⁻¹ | – | ≥ 3 fold |
